Tests used:
[1] = target: T1, human FcγRIIa(H) (human, UniProt P12318 36-217); experiment: SPR, captured antibody;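 also: antibody captured on a sensor chip, Fcγ receptor flowed over at 25 °C, receptor binding normalized to the captured antibody amount and expressed relative to the reference antibody ×100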
T1 construct: also called FcgRIIaH; hFcgRIIa(H)
T1 sequence: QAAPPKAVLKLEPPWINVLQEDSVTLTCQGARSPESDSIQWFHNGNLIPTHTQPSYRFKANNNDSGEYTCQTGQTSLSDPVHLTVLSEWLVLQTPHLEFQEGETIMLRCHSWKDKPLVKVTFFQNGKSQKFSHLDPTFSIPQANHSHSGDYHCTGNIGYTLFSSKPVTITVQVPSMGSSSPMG
Procedure: (§1) Interaction between each modified antibody and Fcγ receptor prepared in the manner described above was analyzed using the BIACORE™ T100 surface plasmon resonance system (GE Healthcare), BIACORE™ T200 surface plasmon resonance system (GE Healthcare), BIACORE™ A100 surface plasmon resonance system or BIACORE™ 4000 surface plasmon resonance system. HBS-EP+ (GE Healthcare) was used for the running buffer, and measurements were carried out at 25° C. The chips used were chips in which antigen peptides, Protein A (Thermo Scientific), Protein A/G (Thermo Scientific) or Protein L (ACTIGEN® protein (Alltech or BioVision) were immobilized on the Series S Sensor Chip CMS (GE Healthcare) or Series S Sensor Chip CM4 (GE Healthcare) by amine coupling, or chips in which preliminarily biotinylated antigen peptides were allowed to interact and then immobilized on the Series S Sensor Chip SA (certified) (GE Healthcare). The target antibodies were captured on these sensor chips, Fcγ receptor diluted with the running buffer was allowed to interact, followed by measurement of the amount of bound antibody. The amounts bound were compared between antibodies. However, since the amount of Fcγ receptor bound depends on the amount of captured antibody, the values used for comparison were first corrected by dividing the amount of Fcγ receptor bound by the captured amount of each antibody. Through reaction with 10 mM glycine-HCl at pH 1.5, the sensor chips were regenerated by washing off antibody captured on the sensor chips and used repeatedly.
(§2) Binding strength was evaluated according to the following method based on the results of analyzing the interaction with each FcγR. […] That value was then further multiplied by 100, and the resulting value was used as an indicator of relative binding activity to each FcγR.

[2] = target: T2, human FcγRIIa(R) (human, UniProt P12318 36-217); experiment: SPR, captured antibody;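 also: antibody captured on a sensor chip, Fcγ receptor flowed over at 25 °C, receptor binding normalized to the captured antibody amount and expressed relative to the reference antibody ×100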
T2 construct: also called FcgRIIaR; hFcgRIIa(R)
T2 chain: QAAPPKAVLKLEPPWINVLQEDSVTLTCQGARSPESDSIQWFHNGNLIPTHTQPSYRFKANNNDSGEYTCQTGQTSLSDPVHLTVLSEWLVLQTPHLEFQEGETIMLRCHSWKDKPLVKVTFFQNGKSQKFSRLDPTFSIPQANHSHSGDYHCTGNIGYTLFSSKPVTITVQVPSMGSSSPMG
Procedure: as §1, §2

[3] = target: T3, human FcγRIIb (human, UniProt P31994 43-217, limits assumed); experiment: SPR, captured antibody;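 also: antibody captured on a sensor chip, Fcγ receptor flowed over at 25 °C, receptor binding normalized to the captured antibody amount and expressed relative to the reference antibody ×100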
T3 construct: also called FcgRIIb; hFcgRIIb
T3 sequence: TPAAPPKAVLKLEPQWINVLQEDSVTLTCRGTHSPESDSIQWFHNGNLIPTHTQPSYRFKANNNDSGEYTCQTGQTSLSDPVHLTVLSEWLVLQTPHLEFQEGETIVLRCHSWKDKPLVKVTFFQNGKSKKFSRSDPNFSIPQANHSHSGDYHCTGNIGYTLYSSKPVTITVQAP
Procedure: as §1, §2

[4] = target: T4, human FcγRIa (human, UniProt P12314 16-292, limits assumed); experiment: SPR, captured antibody;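 also: antibody captured on a sensor chip, Fcγ receptor flowed over at 25 °C, receptor binding normalized to the captured antibody amount and expressed relative to the reference antibody ×100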
T4 construct: also called FcgRIa; hFcgRIa
T4 sequence (P12314 16-292 limits assumed): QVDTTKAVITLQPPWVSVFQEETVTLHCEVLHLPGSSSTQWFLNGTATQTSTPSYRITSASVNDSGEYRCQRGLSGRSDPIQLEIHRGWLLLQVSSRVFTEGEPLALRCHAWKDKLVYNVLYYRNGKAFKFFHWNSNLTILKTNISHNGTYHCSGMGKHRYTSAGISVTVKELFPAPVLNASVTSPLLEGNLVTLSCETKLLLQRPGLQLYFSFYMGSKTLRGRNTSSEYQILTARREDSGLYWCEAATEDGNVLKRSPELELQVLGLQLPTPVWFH
Procedure: as §1, §2

[5] = target: T5, FcγRIIa type H (human, UniProt P12318 36-217); experiment: SPR (Biacore), bound amount, IL6R-BF648/IL6R-L = 100
T5 construct: also called FcγRIIaH; FcγRIIH
T5 sequence: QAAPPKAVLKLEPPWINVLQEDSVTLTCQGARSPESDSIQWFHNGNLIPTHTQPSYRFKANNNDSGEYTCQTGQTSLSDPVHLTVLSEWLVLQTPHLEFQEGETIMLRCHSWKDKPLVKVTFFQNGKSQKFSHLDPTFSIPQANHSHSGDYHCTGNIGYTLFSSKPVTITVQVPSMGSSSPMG
Procedure: (§3) According to the following method, relative binding activities were calculated for the results of analyzing interactions with the respective FcγRs.

[6] = target: T6, FcγRIa (human, UniProt P12314 16-292, limits assumed); experiment: as above
T6 construct: also called FcgRIa; CD64
T6 sequence (P12314 16-292 limits assumed): as the sequence (P12314 16-292 limits assumed) above
Procedure: as §3

Row | Binder | relative binding activity [1] | relative binding activity [2] | relative binding activity [3] | relative binding activity [4] | relative binding activity [5] | relative binding activity [6]
1 | GpH7-B3 Q295S/GpL16-k0 (antibody, human IgG1, B3 variant; copies: 2 + 2) heavy: not shown light: DIVMTQSPLSLPVTPGEPASISCQASESLVHSNRNTYLHWYLQKPGQSPQLLIYKVSNRFSGVPDRFSGSGSGTDFTLKISRVEAEDVGVYYCSQNTHVPPTFGQGTKVEIE | 67 % of GpH7-B3/GpL16-k0 | 52 % of GpH7-B3/GpL16-k0 | 40 % of GpH7-B3/GpL16-k0 | 100 % of GpH7-B3/GpL16-k0 | – | –
2 | GpH7-B3 S324K/GpL16-k0 (antibody, human IgG1, B3 variant; copies: 2 + 2) heavy: not shown light: DIVMTQSPLSLPVTPGEPASISCQASESLVHSNRNTYLHWYLQKPGQSPQLLIYKVSNRFSGVPDRFSGSGSGTDFTLKISRVEAEDVGVYYCSQNTHVPPTFGQGTKVEIE | 97 % of GpH7-B3/GpL16-k0 | 75 % of GpH7-B3/GpL16-k0 | 64 % of GpH7-B3/GpL16-k0 | 94 % of GpH7-B3/GpL16-k0 | – | –
3 | GpH7-B3 Y296P/GpL16-k0 (antibody, human IgG1, B3 variant; copies: 2 + 2) heavy: not shown light: DIVMTQSPLSLPVTPGEPASISCQASESLVHSNRNTYLHWYLQKPGQSPQLLIYKVSNRFSGVPDRFSGSGSGTDFTLKISRVEAEDVGVYYCSQNTHVPPTFGQGTKVEIE | 8 % of GpH7-B3/GpL16-k0 | 10 % of GpH7-B3/GpL16-k0 | 7 % of GpH7-B3/GpL16-k0 | 45 % of GpH7-B3/GpL16-k0 | – | –
4 | GpH7-B3 S298Y/GpL16-k0 (antibody, human IgG1, B3 variant; copies: 2 + 2) heavy: not shown light: DIVMTQSPLSLPVTPGEPASISCQASESLVHSNRNTYLHWYLQKPGQSPQLLIYKVSNRFSGVPDRFSGSGSGTDFTLKISRVEAEDVGVYYCSQNTHVPPTFGQGTKVEIE | 35 % of GpH7-B3/GpL16-k0 | 33 % of GpH7-B3/GpL16-k0 | 23 % of GpH7-B3/GpL16-k0 | 100 % of GpH7-B3/GpL16-k0 | – | –
5 | GpH7-B3 S298G/GpL16-k0 (antibody, human IgG1, B3 variant; copies: 2 + 2) heavy: not shown light: DIVMTQSPLSLPVTPGEPASISCQASESLVHSNRNTYLHWYLQKPGQSPQLLIYKVSNRFSGVPDRFSGSGSGTDFTLKISRVEAEDVGVYYCSQNTHVPPTFGQGTKVEIE | 43 % of GpH7-B3/GpL16-k0 | 89 % of GpH7-B3/GpL16-k0 | 68 % of GpH7-B3/GpL16-k0 | 100 % of GpH7-B3/GpL16-k0 | – | –
6 | GpH7-B3 Q295Y/GpL16-k0 (antibody, human IgG1, B3 variant; copies: 2 + 2) heavy: not shown light: DIVMTQSPLSLPVTPGEPASISCQASESLVHSNRNTYLHWYLQKPGQSPQLLIYKVSNRFSGVPDRFSGSGSGTDFTLKISRVEAEDVGVYYCSQNTHVPPTFGQGTKVEIE | 70 % of GpH7-B3/GpL16-k0 | 38 % of GpH7-B3/GpL16-k0 | 24 % of GpH7-B3/GpL16-k0 | 95 % of GpH7-B3/GpL16-k0 | – | –
7 | GpH7-B3 Y296G/GpL16-k0 (antibody, human IgG1, B3 variant; copies: 2 + 2) heavy: not shown light: DIVMTQSPLSLPVTPGEPASISCQASESLVHSNRNTYLHWYLQKPGQSPQLLIYKVSNRFSGVPDRFSGSGSGTDFTLKISRVEAEDVGVYYCSQNTHVPPTFGQGTKVEIE | 83 % of GpH7-B3/GpL16-k0 | 77 % of GpH7-B3/GpL16-k0 | 58 % of GpH7-B3/GpL16-k0 | 100 % of GpH7-B3/GpL16-k0 | – | –
8 | GpH7-B3 Y300K/GpL16-k0 (antibody, human IgG1, B3 variant; copies: 2 + 2) heavy: not shown light: DIVMTQSPLSLPVTPGEPASISCQASESLVHSNRNTYLHWYLQKPGQSPQLLIYKVSNRFSGVPDRFSGSGSGTDFTLKISRVEAEDVGVYYCSQNTHVPPTFGQGTKVEIE | 56 % of GpH7-B3/GpL16-k0 | 59 % of GpH7-B3/GpL16-k0 | 45 % of GpH7-B3/GpL16-k0 | 95 % of GpH7-B3/GpL16-k0 | – | –
9 | GpH7-B3 S324P/GpL16-k0 (antibody, human IgG1, B3 variant; copies: 2 + 2) heavy: not shown light: DIVMTQSPLSLPVTPGEPASISCQASESLVHSNRNTYLHWYLQKPGQSPQLLIYKVSNRFSGVPDRFSGSGSGTDFTLKISRVEAEDVGVYYCSQNTHVPPTFGQGTKVEIE | 14 % of GpH7-B3/GpL16-k0 | 34 % of GpH7-B3/GpL16-k0 | 36 % of GpH7-B3/GpL16-k0 | 91 % of GpH7-B3/GpL16-k0 | – | –
10 | GpH7-B3 Y300R/GpL16-k0 (antibody, human IgG1, B3 variant; copies: 2 + 2) heavy: not shown light: DIVMTQSPLSLPVTPGEPASISCQASESLVHSNRNTYLHWYLQKPGQSPQLLIYKVSNRFSGVPDRFSGSGSGTDFTLKISRVEAEDVGVYYCSQNTHVPPTFGQGTKVEIE | 34 % of GpH7-B3/GpL16-k0 | 38 % of GpH7-B3/GpL16-k0 | 25 % of GpH7-B3/GpL16-k0 | 91 % of GpH7-B3/GpL16-k0 | – | –
11 | GpH7-B3 Y300P/GpL16-k0 (antibody, human IgG1, B3 variant; copies: 2 + 2) heavy: not shown light: DIVMTQSPLSLPVTPGEPASISCQASESLVHSNRNTYLHWYLQKPGQSPQLLIYKVSNRFSGVPDRFSGSGSGTDFTLKISRVEAEDVGVYYCSQNTHVPPTFGQGTKVEIE | 0 % of GpH7-B3/GpL16-k0 | -1 % of GpH7-B3/GpL16-k0 | -1 % of GpH7-B3/GpL16-k0 | 9 % of GpH7-B3/GpL16-k0 | – | –
12 | GpH7-B3 S298K/GpL16-k0 (antibody, human IgG1, B3 variant; copies: 2 + 2) heavy: not shown light: DIVMTQSPLSLPVTPGEPASISCQASESLVHSNRNTYLHWYLQKPGQSPQLLIYKVSNRFSGVPDRFSGSGSGTDFTLKISRVEAEDVGVYYCSQNTHVPPTFGQGTKVEIE | 38 % of GpH7-B3/GpL16-k0 | 79 % of GpH7-B3/GpL16-k0 | 34 % of GpH7-B3/GpL16-k0 | 88 % of GpH7-B3/GpL16-k0 | – | –
13 | GpH7-B3 Y296K/GpL16-k0 (antibody, human IgG1, B3 variant; copies: 2 + 2) heavy: not shown light: DIVMTQSPLSLPVTPGEPASISCQASESLVHSNRNTYLHWYLQKPGQSPQLLIYKVSNRFSGVPDRFSGSGSGTDFTLKISRVEAEDVGVYYCSQNTHVPPTFGQGTKVEIE | 66 % of GpH7-B3/GpL16-k0 | 70 % of GpH7-B3/GpL16-k0 | 45 % of GpH7-B3/GpL16-k0 | 99 % of GpH7-B3/GpL16-k0 | – | –
14 | GpH7-B3 S298R/GpL16-k0 (antibody, human IgG1, B3 variant; copies: 2 + 2) heavy: not shown light: DIVMTQSPLSLPVTPGEPASISCQASESLVHSNRNTYLHWYLQKPGQSPQLLIYKVSNRFSGVPDRFSGSGSGTDFTLKISRVEAEDVGVYYCSQNTHVPPTFGQGTKVEIE | 36 % of GpH7-B3/GpL16-k0 | 62 % of GpH7-B3/GpL16-k0 | 22 % of GpH7-B3/GpL16-k0 | 92 % of GpH7-B3/GpL16-k0 | – | –
15 | GpH7-B3 Q295W/GpL16-k0 (antibody, human IgG1, B3 variant; copies: 2 + 2) heavy: not shown light: DIVMTQSPLSLPVTPGEPASISCQASESLVHSNRNTYLHWYLQKPGQSPQLLIYKVSNRFSGVPDRFSGSGSGTDFTLKISRVEAEDVGVYYCSQNTHVPPTFGQGTKVEIE | 38 % of GpH7-B3/GpL16-k0 | 26 % of GpH7-B3/GpL16-k0 | 16 % of GpH7-B3/GpL16-k0 | 81 % of GpH7-B3/GpL16-k0 | – | –
16 | GpH7-B3 Y296R/GpL16-k0 (antibody, human IgG1, B3 variant; copies: 2 + 2) heavy: not shown light: DIVMTQSPLSLPVTPGEPASISCQASESLVHSNRNTYLHWYLQKPGQSPQLLIYKVSNRFSGVPDRFSGSGSGTDFTLKISRVEAEDVGVYYCSQNTHVPPTFGQGTKVEIE | 74 % of GpH7-B3/GpL16-k0 | 77 % of GpH7-B3/GpL16-k0 | 52 % of GpH7-B3/GpL16-k0 | 100 % of GpH7-B3/GpL16-k0 | – | –
17 | GpH7-B3 S298P/GpL16-k0 (antibody, human IgG1, B3 variant; copies: 2 + 2) heavy: not shown light: DIVMTQSPLSLPVTPGEPASISCQASESLVHSNRNTYLHWYLQKPGQSPQLLIYKVSNRFSGVPDRFSGSGSGTDFTLKISRVEAEDVGVYYCSQNTHVPPTFGQGTKVEIE | 0 % of GpH7-B3/GpL16-k0 | 0 % of GpH7-B3/GpL16-k0 | -1 % of GpH7-B3/GpL16-k0 | 15 % of GpH7-B3/GpL16-k0 | – | –
18 | IL6R-BP130/IL6R-L (antibody, human IgG1, IgG1; Fc variant of IL6R-B3; copies: 2 + 2) heavy: QVQLQESGPGLVKPSETLSLTCAVSGHSISHDHAWSWVRQPPGEGLEWIGFISYSGITNYNPSLQGRVTISRDNSKNTLYLQMNSLRAEDTAVYYCARSLARTTAMDYWGEGTLVTVSSASTKGPSVFPLAPSSKSTSGGTAALGCLVKDYFPEPVTVSWNSGALTSGVHTFPAVLQSSGLYSLSSVVTVPSSSLGTQTYICNVNHKPSNTKVDKKVEPKSCDKTHTCPPCPAPDLLGGDSVFLFPPKPKDTLMISRTPEVTCVVVDVSHEDPEVKFNWYVDGVEVHNAKTKPREEQYNSTYRVVSVLTVLHQDWLNGKEYKCKMSNKALPKPIEKTISKAKGQPREPQVYTLPPSRDELTKNQVSLTCLVKGFYPSDIAVEWESNGQPENNYKTTPPVLDSDGSFFLYSKLTVDKSRWQQGNVFSCSVMHEALHNHYTQESLSLSP light: DIQMTQSPSSLSASVGDRVTITCRASQDISSYLNWYQQKPGKAPKLLIYYTSRLHSGVPSRFSGSGSGTDFTFTISSLQPEDIATYYCQQGNTLPYTFGQGTKVEIK | – | – | – | – | 224 % of control | 104 % of control
